B1: 3G3 N-Me amino acids 4: CLG-nV-LGKLC (peptide)
peptide: CLG[NMeV]LGKLC
modifications: not fully specified (bridges); cysteine pairing not given here
B2: 3G3 Gly scan 5: … (peptide)
peptide: CLGVLGKGC
B3: 3G3 conformational scan 18: C-pG-GVLGKLC (peptide)
peptide: C[Phg]GVLGKLC
modifications: not fully specified (bridges); cysteine pairing not given here
B4: 3G3 conformational scan 26: CL-aiB-VLGKLC (peptide)
peptide: CL[Aib]VLGKLC
modifications: not fully specified (bridges); printed as CL-aiB-VLGKLC; cysteine pairing not given here
B5: 3G3 conformational scan 30: CLGVLG-aiB-LC (peptide)
peptide: CLGVLG[Aib]LC
modifications: not fully specified (bridges); printed as CLGVLG-aiB-LC; cysteine pairing not given here
B6: 3G3 conformational scan 29: CLGVL-aiB-KLC (peptide)
peptide: CLGVL[Aib]KLC
modifications: not fully specified (bridges); printed as CLGVL-aiB-KLC; cysteine pairing not given here
B7: 3G3 truncation 3: … (peptide)
peptide: PCLGVLGKLCPG
B8: 3G3 conformational scan 19: CL-pG-VLGKLC (peptide)
peptide: CL[Phg]VLGKLC
modifications: not fully specified (bridges); cysteine pairing not given here
B9: 3G3 conformational scan 21: CLGV-pG-GKLC (peptide)
peptide: CLGV[Phg]GKLC
modifications: not fully specified (bridges); printed as CLGV-pG-GKLC; cysteine pairing not given here
B10: 3G3 D amino acids 5: CLGVLG-dK-LC (peptide)
peptide: CLGVLG[dK]LC
modifications: not fully specified (bridges); cysteine pairing not given here
B11: 3G3 conformational scan 31: CLGVLGK-aiB-C (peptide)
peptide: CLGVLGK[Aib]C
modifications: not fully specified (bridges); printed as CLGVLGK-aiB-C; cysteine pairing not given here
B12: 3G3 truncation 4: … (peptide)
peptide: CLGVLGKLCPG
B13: 3G3 Ala scan 5: … (peptide 925) (peptide)
peptide: CLGVLAKLC
B14: 3G3 Ala scan 1: … (peptide)
peptide: CAGVLGKLC
B15: 3G3 branched aliphatic 1: … (peptide)
peptide: CIGVLGKLC
B16: 3G3 D amino acids 4: CLGV-dL-GKLC (peptide)
peptide: CLGV[dL]GKLC
modifications: not fully specified (bridges); cysteine pairing not given here
B17: 3G3 D amino acids 21: CLGVLG-dL-dL-C (peptide)
peptide: CLGVLG[dL][dL]C
modifications: not fully specified (bridges); cysteine pairing not given here
B18: 3G3 conformational scan 13 (Pro scan): … (peptide)
peptide: CLGPLGKLC
B19: 3G3 conformational scan 15 (Pro scan): … (peptide)
peptide: CLGVLPKLC
B20: 3G3 basic amino acid 2: CLGVLG-Or-LC (peptide)
peptide: CLGVLG[Orn]LC
modifications: not fully specified (bridges); cysteine pairing not given here
B21: 3G3 Gly scan 1: … (peptide)
peptide: CGGVLGKLC
B22: 3G3 Ala scan 7: … (peptide)
peptide: CLGVLGKAC
B23: 3G3 truncation 2: … (peptide)
peptide: GPCLGVLGKLCPG
B24: 3G3 N-Me amino acids 6: CLGVL-nG-KLC (peptide)
peptide: CLGVL[Sar]KLC
modifications: not fully specified (bridges); cysteine pairing not given here
B25: CCTE, LJP 698 (cyclic thioether analog of 3G3, C-LGVLGKL-C) (peptide)
peptide: CLGVLGKLC
modifications: cyclic thioether in place of the disulfide
B26: 3G3 Ala scan 3: … (peptide)
peptide: CLGALGKLC
B27: 3G3 D amino acids 1: dP-… (peptide)
peptide: [dP]CLGVLGKLC
modifications: not fully specified (bridges); cysteine pairing not given here
B28: 3G3 conformational scan 25 (alpha Me AA): C-aiB-GVLGKLC (peptide)
peptide: C[Aib]GVLGKLC
modifications: not fully specified (bridges); printed as C-aiB-GVLGKLC; cysteine pairing not given here
B29: 3G3 Ala scan 2: … (peptide)
peptide: CLAVLGKLC
B30: 3G3 N-Me amino acids 8: CLGVLGK-nL-C (peptide)
peptide: CLGVLGK[NMeL]C
modifications: not fully specified (bridges); cysteine pairing not given here
B31: 3G3 conformational scan 12 (Pro scan): … (peptide)
peptide: CLPVLGKLC
B32: 3G3 D amino acids 10: CLG-dV-dL-GKLC (peptide)
peptide: CLG[dV][dL]GKLC
modifications: not fully specified (bridges); cysteine pairing not given here
B33: 3G3 conformational scan 11 (Pro scan): … (peptide)
peptide: CPGVLGKLC
B34: 3G3 conformational scan 24: CLGVLGK-pG-C (peptide)
peptide: CLGVLGK[Phg]C
modifications: not fully specified (bridges); printed as CLGVLGK-pG-C; cysteine pairing not given here
B35: 3G3 branched aliphatic 2: … (peptide)
peptide: CVGVLGKLC
B36: HHTE, LJP 703 (cyclic thioether analog of 3G3, Hc-LGVLGKL-Hc) (peptide)
peptide: XLGVLGKLX
modifications: homocysteine (Hc) at positions 1 and 9; cyclic thioether
B37: 3G3 conformational scan 16 (Pro scan): … (peptide)
peptide: CLGVLGPLC
B38: 3G3 basic amino acid 1: … (peptide)
peptide: CLGVLGRLC
B39: 3G3 N-Me amino acids 5: CLGV-nL-GKLC (peptide)
peptide: CLGV[NMeL]GKLC
modifications: not fully specified (bridges); cysteine pairing not given here
B40: 3G3 conformational scan 27: CLG-aiB-LGKLC (peptide)
peptide: CLG[Aib]LGKLC
modifications: not fully specified (bridges); printed as CLG-aiB-LGKLC; cysteine pairing not given here
B41: 3G3 D amino acids 6: CLGVLGK-dL-C (peptide)
peptide: CLGVLGK[dL]C
modifications: not fully specified (bridges); cysteine pairing not given here
B42: CHTE, LJP 702 (cyclic thioether analog of 3G3, C-LGVLGKL-Hc) (peptide)
peptide: CLGVLGKLX
modifications: homocysteine (Hc) at position 9; cyclic thioether
B43: 3G3 truncation 5: … (as printed) (peptide)
peptide: AGPCLGVLGKLCG
B44: 3G3 conformational scan 23: CLGVLG-pG-LC (peptide)
peptide: CLGVLG[Phg]LC
modifications: not fully specified (bridges); printed as CLGVLG-pG-LC; cysteine pairing not given here
B45: 3G3 D amino acids 22: CLGVL-dA-KLC (peptide)
peptide: CLGVL[dA]KLC
modifications: not fully specified (bridges); cysteine pairing not given here
B46: 3G3 conformational scan 20: CLG-pG-LGKLC (peptide)
peptide: CLG[Phg]LGKLC
modifications: not fully specified (bridges); printed as CLG-pG-LGKLC; cysteine pairing not given here
B47: 3G3 conformational scan 17 (Pro scan): … (peptide)
peptide: CLGVLGKPC
B48: 3G3 D amino acids 18: CLGVLG-dK-dL-C (peptide)
peptide: CLGVLG[dK][dL]C
modifications: not fully specified (bridges); cysteine pairing not given here
B49: 3G3 N-Me amino acids 3: CL-nG-VLGKLC (peptide)
peptide: CL[Sar]VLGKLC
modifications: not fully specified (bridges); cysteine pairing not given here
B50: LJP 690 … (peptide)
peptide: CLGVLGKLC
modifications: disulfide 1-9 (inferred)
B51: HCTE, LJP 699 (cyclic thioether analog of 3G3, Hc-LGVLGKL-C) (peptide)
peptide: XLGVLGKLC
modifications: homocysteine (Hc) at position 1; cyclic thioether

Bridge positions count the residues as written; N and C are the ends. Square brackets hold non-standard residues; d marks the D form. Ends that are not written are not given here. NMeL = CN[C@@H](CC(C)C)C(=O)O; Phg = N[C@H](C(=O)O)c1ccccc1; NMeV = CN[C@H](C(=O)O)C(C)C; Orn = NCCC[C@H](N)C(=O)O; Aib = CC(C)(N)C(=O)O; Sar = CNCC(=O)O Some results are limits rather than exact numbers.

The test concerns the target ACA-6501 aPL antibody. The experiment in a line: competitive ELISA I50; antibody not given, ACA-6501 serum on CL/β2-GPI assumed (Ex. 4B).
B1: the IC50 was found to be 220 µg/mL. On to B2, for which the IC50 amounted to 500 µg/mL. As to B3, the IC50 is 130 µg/mL. As for B4, the figure is 80 µg/mL; as for B5, 460 µg/mL; as for B6, 110 µg/mL. Molecule B7 gave an IC50 of 420 µg/mL.

In the case of B8, the IC50 came out at 70 µg/mL.

The molecule B9 yielded an IC50 of 35 µg/mL. This IC50 is about 2-fold lower than that of the molecule before. The molecule B10 registered an IC50 of 170 µg/mL. With B11, the 50% inhibitory concentration (IC50) is greater than 470 µg/mL. As for B12, the figure is 460 µg/mL; as for B13, 40 µg/mL. For B14, the 50% inhibitory concentration (IC50) stood at 200 µg/mL. In the case of B15, the IC50 was determined as 60 µg/mL. B16 registered an IC50 of 230 µg/mL.

Molecule B17 returned a half-inhibitory concentration (IC50) of 140 µg/mL. Against the preceding molecule, the IC50 is about 1.6-fold lower. Molecule B18 gave a 50% inhibitory concentration (IC50) of 180 µg/mL. The IC50 values of the last two molecules are within 1.5-fold of each other.

The molecule B19 gave an IC50 of 350 µg/mL. This IC50 is about 1.9-fold higher than that of the molecule before. As to B20, the IC50 is 40 µg/mL. In turn, B21 displayed an IC50 of 310 µg/mL. The value for B22 was 360 µg/mL. For the molecule B23, the concentration for half-maximal inhibition (IC50) was found to be 180 µg/mL.

B24: the 50% inhibitory concentration (IC50) stood at 550 µg/mL. This IC50 lies about 3.1-fold higher than the previous one. In the case of B25, the concentration for half-maximal inhibition (IC50) is 110 µg/mL. As for B26, the figure is 260 µg/mL; as for B27, 120 µg/mL; as for B28, 370 µg/mL. As to B29, the IC50 worked out at 170 µg/mL. Compared with the last molecule, the IC50 is about 2.2-fold lower. For the molecule B30, the IC50 is 240 µg/mL.

As to B31, the IC50 turned out to be 340 µg/mL. This IC50 and that of the molecule before are within 1.5-fold of each other.

On to B32, for which the half-inhibitory concentration (IC50) came out at 50 µg/mL. B33 had an IC50 of 160 µg/mL. This IC50 is about 3.2-fold higher than that of the molecule before.

B34 registered an IC50 of 80 µg/mL. Compared with the last molecule, the IC50 is about 2-fold lower. B35 displayed a half-inhibitory concentration (IC50) of 130 µg/mL. For B36, the IC50 amounted to 80 µg/mL.

Consider B37, for which the IC50 was found to be 160 µg/mL. This IC50 is about 2-fold higher than that of the molecule before.

On to B38, for which the half-maximal inhibitory concentration (IC50) came to 160 µg/mL. In turn, B39 gave an IC50 of 180 µg/mL. Regarding B40, the IC50 was 110 µg/mL.

As for B41, the IC50 amounted to 140 µg/mL. Take B42: the IC50 was 92 µg/mL. As for B43, the 50% inhibitory concentration (IC50) worked out at 450 µg/mL. Regarding B44, the IC50 is 230 µg/mL. Compared with the last molecule, the IC50 is about 2-fold lower. With B45, the IC50 was 140 µg/mL.

In turn, B46 showed an IC50 of 70 µg/mL. Compared with the last molecule, the IC50 is about 2-fold lower. Take B47: the IC50 is 550 µg/mL. As for B48, the concentration for half-maximal inhibition (IC50) is 150 µg/mL. B49 gave an IC50 of 70 µg/mL. The value for B50 was 10 µg/mL; that for B51 was 46 µg/mL.

Values taken from US6410775.
